From IntAct's records for PubMed 25910212

B1: Corrinoid adenosyltransferase MMAB (Homo sapiens), Q96EY8 (parent)
chain: MAVCGLGSRLGLGSRLGLRGCFGAARLLYPRFQSRGPQGVEDGDRPQPSSKTPRIPKIYTKTGDKGFSSTFTGERRPKDDQVFEAVGTTDELSSAIGFALELVTEKGHTFAEELQKIQCTLQDVGSALATPCSSAREAHLKYTTFKAGPILELEQWIDKYTSQLPPLTAFILPSGGKISSALHFCRAVCRRAERRVVPLVQMGETDANVAKFLNRLSDYLFTLARYAAMKEGNQEKIYMKNDPSAESEGL
partner: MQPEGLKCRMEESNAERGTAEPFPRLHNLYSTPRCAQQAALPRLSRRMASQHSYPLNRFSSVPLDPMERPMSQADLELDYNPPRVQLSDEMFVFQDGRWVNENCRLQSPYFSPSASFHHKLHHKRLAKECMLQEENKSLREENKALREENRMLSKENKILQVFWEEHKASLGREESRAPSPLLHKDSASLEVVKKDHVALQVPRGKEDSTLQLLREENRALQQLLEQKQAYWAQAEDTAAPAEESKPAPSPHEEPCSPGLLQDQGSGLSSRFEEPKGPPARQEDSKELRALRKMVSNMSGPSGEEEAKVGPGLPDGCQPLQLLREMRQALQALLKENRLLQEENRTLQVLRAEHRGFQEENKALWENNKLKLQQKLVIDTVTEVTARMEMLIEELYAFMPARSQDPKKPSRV
B2: Basal cell adhesion molecule (Homo sapiens), P50895 (parent)
chain: MEPPDAPAQARGAPRLLLLAVLLAAHPDAQAEVRLSVPPLVEVMRGKSVILDCTPTGTHDHYMLEWFLTDRSGARPRLASAEMQGSELQVTMHDTRGRSPPYQLDSQGRLVLAEAQVGDERDYVCVVRAGAAGTAEATARLNVFAKPEATEVSPNKGTLSVMEDSAQEIATCNSRNGNPAPKITWYRNGQRLEVPVEMNPEGYMTSRTVREASGLLSLTSTLYLRLRKDDRDASFHCAAHYSLPEGRHGRLDSPTFHLTLHYPTEHVQFWVGSPSTPAGWVREGDTVQLLCRGDGSPSPEYTLFRLQDEQEEVLNVNLEGNLTLEGVTRGQSGTYGCRVEDYDAADDVQLSKTLELRVAYLDPLELSEGKVLSLPLNSSAVVNCSVHGLPTPALRWTKDSTPLGDGPMLSLSSITFDSNGTYVCEASLPTVPVLSRTQNFTLLVQGSPELKTAEIEPKADGSWREGDEVTLICSARGHPDPKLSWSQLGGSPAEPIPGRQGWVSSSLTLKVTSALSRDGISCEASNPHGNKRHVFHFGTVSPQTSQAGVAVMAVAVSVGLLLLVVAVFYCVRRKGGPCCRQRREKGAPPPGEPGLSHSGSEQPEQTGLLMGGASGGARGGSGGFGDEC
partner: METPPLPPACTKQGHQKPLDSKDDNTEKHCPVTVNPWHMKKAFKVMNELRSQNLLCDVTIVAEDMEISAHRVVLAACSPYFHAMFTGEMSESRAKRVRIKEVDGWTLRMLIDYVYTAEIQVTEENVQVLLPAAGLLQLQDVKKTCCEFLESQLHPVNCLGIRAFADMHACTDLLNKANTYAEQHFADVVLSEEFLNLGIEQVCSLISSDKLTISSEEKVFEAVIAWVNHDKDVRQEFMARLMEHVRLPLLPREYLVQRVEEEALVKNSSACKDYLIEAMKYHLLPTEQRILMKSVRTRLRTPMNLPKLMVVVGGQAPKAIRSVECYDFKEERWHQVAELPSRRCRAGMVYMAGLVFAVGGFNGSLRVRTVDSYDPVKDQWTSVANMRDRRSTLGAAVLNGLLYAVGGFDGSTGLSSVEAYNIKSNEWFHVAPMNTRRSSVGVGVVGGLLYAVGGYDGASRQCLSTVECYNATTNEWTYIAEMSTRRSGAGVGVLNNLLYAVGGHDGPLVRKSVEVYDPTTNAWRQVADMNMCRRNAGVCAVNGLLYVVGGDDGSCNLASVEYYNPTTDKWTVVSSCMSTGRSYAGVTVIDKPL

Variants of: B1
Conditions: with CBY2, Q8NA61-2

Effect of a mutation on the interaction, with no effect:
MAVCGLGSRLGLGSRLGLRGCFGAARLLYPRFQSRGPQGVEDGDRPQPSSKTPRIPKIYTKTGDKGFSSTFTGERRPKDDQVFEAVGTTDELSSAIGFALELVTEKGHTFAEELQKIQCTLQDVGSALATPCSSAREAHLKYTTFKAGPILELEQWIDKYTSQLPPLTAFILPSGGKISSALHFCRAVCCRAERRVVPLVQMGETDANVAKFLNRLSDYLFTLARYAAMKEGNQEKIYMKNDPSAESEGL [R190C]
MAVCGLGSRLGLGSRLGLRGCFGAARLLYPRFQSRGPQGVEDGDRPQPSSKTPRIPKIYTKTGDKGFSSTFTGERRPKDDQVFEAVGTTDELSSATGFALELVTEKGHTFAEELQKIQCTLQDVGSALATPCSSAREAHLKYTTFKAGPILELEQWIDKYTSQLPPLTAFILPSGGKISSALHFCRAVCRRAERRVVPLVQMGETDANVAKFLNRLSDYLFTLARYAAMKEGNQEKIYMKNDPSAESEGL [I96T]
MAVCGLGSRLGLGSRLGLRGCFGAARLLYPRFQSRGPQGVEDGDRPQPSSKTPRIPKIYTKTGDKGFSSTFTGERRPKDDQVFEAVGTTDELSSAIGFALELVTEKGHTFAEELQKIQCTLQDVGSALATPCSSTREAHLKYTTFKAGPILELEQWIDKYTSQLPPLTAFILPSGGKISSALHFCRAVCRRAERRVVPLVQMGETDANVAKFLNRLSDYLFTLARYAAMKEGNQEKIYMKNDPSAESEGL [A135T]

Variants of: B2
Conditions: with klhl2_human KLHL2, O95198

Effect of a mutation on the interaction, with no effect:
R175Q
R77H
T539A
S447L
